Experimental findings from the RNAGym collection of RNA variant scans (doi:10.7554/elife.80360) are described below.

The labels stand for the following.
B1: Hammerhead Ribozyme (parent)
chain: ACCGGAUGUGCUUUCCGGUCUGAUGAGUCCGUGAGGACGAAACAG

Variants of B1 are the subject of this data set. As to the kind of experiment: self-cleavage, relative activity (ratio to wild type); higher = more cleavage; co-transcriptional.
Consider U14C G35A, for which the self-cleavage is 0.565.
As for U14C G35C, the self-cleavage worked out at 0.499.
U14C G35U: the self-cleavage was 0.761.
With U14C A44G, the self-cleavage was found to be 1.24.
For U14C A44U, the self-cleavage amounted to 0.393.
To U14C A44C belongs 0.489; to U14C U21C, 0.504.
In the case of U14C U21G it was 0.319; in that of U14C U21A, 0.347.
U14A G35U: the self-cleavage is 0.721.
In the case of U14A G35A it was 0.665; in that of U14A G35C, 0.654; in that of U14A C16G, 0.403.
On to U14A C16A, for which the self-cleavage was 0.592.
As for U14A C16U, the self-cleavage came out at 0.798.
To U14G A42C belongs 0.382; to U14G A42G, 0.381; to U14G A42U, 0.268.
On to U14G C20G, for which the self-cleavage was 0.297.
As to U14G C20A, the self-cleavage was 0.481.
As to U14G C20U, the self-cleavage was 0.393.
On to U14A G45U, for which the self-cleavage came out at 0.715.
Take U14A G45A: the self-cleavage was 0.765.
Take U14A G45C: the self-cleavage is 0.636.
For U14G C15A, the self-cleavage came to 0.659.
Consider U14G C15G, for which the self-cleavage was determined as 0.771.
To U14G C15U belongs 0.581; to U13G G31A, 1.1.
U13G G31C: the self-cleavage stood at 0.943.
Consider U13G G31U, for which the self-cleavage stood at 0.82.
In the case of U14A C15A, the self-cleavage was 1.09.
Regarding U14A C15G, the self-cleavage came out at 0.722.
With U14A C15U, the self-cleavage stood at 0.994.
U14A A40U: the self-cleavage was determined as 0.237.
Regarding U14A A40G, the self-cleavage was 0.296.
In the case of U14A A40C it was 0.491.
For the variant U14G U21A, the self-cleavage stood at 0.741.
As to U14G U21C, the self-cleavage was determined as 0.812.
With U13G U14G, the self-cleavage is 0.796.
On to U13G U14C, for which the self-cleavage turned out to be 0.598.
Regarding U13G U14A, the self-cleavage came out at 0.428.
For U14C A37C, the self-cleavage turned out to be 0.436.
Take U14C A37U: the self-cleavage stood at 0.624.
With U14C A37G, the self-cleavage amounted to 0.945.
In the case of U14C A40G, the self-cleavage worked out at 0.273.
In the case of U14C A40C, the self-cleavage was found to be 0.277.
To U14C A40U belongs 0.354.
As for U13G G22C, the self-cleavage is 0.315.
For U13G G22A, the self-cleavage worked out at 0.383.
For U13G G22U, the self-cleavage was determined as 0.306.
U13G C29G: the self-cleavage turned out to be 0.581.
Take U13G C29U: the self-cleavage is 0.82.
On to U14A C20A, for which the self-cleavage was 0.44.
As for U14A C20U, the self-cleavage was 0.398.
To U14A C20G belongs 0.346; to U14C, 0.932.
In the case of U14A it was 0.954; in that of U14G, 0.77.
On to U14G C29G, for which the self-cleavage turned out to be 0.737.
On to U14G C29U, for which the self-cleavage worked out at 0.625.
As to U14G C29A, the self-cleavage came to 0.677.
U14C C38A: the self-cleavage amounted to 0.532.
For the variant U14C C38U, the self-cleavage is 1.15.
Regarding U14C C38G, the self-cleavage was determined as 0.489.
On to U13G G17A, for which the self-cleavage amounted to 0.876.
U13G G17U: the self-cleavage turned out to be 0.78.
As for U13G G17C, the self-cleavage was 0.572.
Consider U14A U19G, for which the self-cleavage was determined as 0.356.
Turning to U14A U19C, the self-cleavage came out at 0.474.
As to U14A U19A, the self-cleavage came to 0.304.
For U13G C38A, the self-cleavage is 0.434.
For U13G C38G, the self-cleavage came to 0.531.
To U13G C38U belongs 0.724; to U14G G25U, 0.28; to U14G G25A, 0.315.
As to U14G G25C, the self-cleavage was 0.315.
Regarding U13G G39C, the self-cleavage amounted to 0.396.
In the case of U13G G39A it was 0.332; in that of U13G G39U, 0.299; in that of U13G G25U, 0.303.
Turning to U13G G25C, the self-cleavage came to 0.315.
For the variant U13G G25A, the self-cleavage was 0.367.
As for U14G A34U, the self-cleavage was 0.782.
In the case of U14G A34C, the self-cleavage amounted to 0.875.
On to U14G A34G, for which the self-cleavage amounted to 0.652.
To U14G G35U belongs 0.611; to U14G G35A, 0.725.
In the case of U14G G35C, the self-cleavage turned out to be 0.509.
To U14C G45A belongs 0.472; to U14C G45C, 0.441.
Regarding U14C G45U, the self-cleavage amounted to 0.485.
U14C U28G: the self-cleavage was 0.544.
For the variant U14C U28C, the self-cleavage was found to be 0.706.
In the case of U14C U28A, the self-cleavage was 0.501.
With U13G G33C, the self-cleavage was determined as 1.06.
As for U13G G33A, the self-cleavage amounted to 0.959.
In the case of U13G G33U it was 0.801; in that of U14G G33C, 0.528; in that of U14G G33A, 0.518.
In the case of U14G G33U it was 0.678; in that of U14A G22C, 0.327.
For U14A G22A, the self-cleavage is 0.36.
For the variant U14A G22U, the self-cleavage amounted to 0.331.
Take U14A C29G: the self-cleavage was 0.562.
With U14A C29A, the self-cleavage turned out to be 0.608.
As to U14A C29U, the self-cleavage was 0.557.
Consider U14A A34U, for which the self-cleavage turned out to be 0.903.
Regarding U14A A34C, the self-cleavage amounted to 1.05.
Take U14A A34G: the self-cleavage worked out at 0.73.
Turning to U14C G22A, the self-cleavage was found to be 0.32.
As for U14C G22U, the self-cleavage turned out to be 0.33.
With U14C G22C, the self-cleavage was found to be 0.294.
As to U14A U32G, the self-cleavage amounted to 0.989.
In the case of U14A U32C, the self-cleavage amounted to 0.946.
Consider U14A U32A, for which the self-cleavage is 1.38.
Take U14C C16G: the self-cleavage was 0.722.
Regarding U14C C16A, the self-cleavage amounted to 0.931.
Regarding U14C C16U, the self-cleavage was 0.95.
As to U14A G27U, the self-cleavage was found to be 0.405.
As for U14A G27A, the self-cleavage turned out to be 0.771.
With U14A G27C, the self-cleavage was 0.661.
Regarding U14A A41G, the self-cleavage was determined as 0.28.
Take U14A A41C: the self-cleavage stood at 0.302.
Take U14A A41U: the self-cleavage stood at 0.296.
For the variant U14G C30A, the self-cleavage was 0.924.
To U14G C30G belongs 0.721; to U14G C30U, 0.552.
To U13G U21C belongs 0.579; to U13G U21G, 0.537; to U13G U21A, 0.507.
Consider U14G C16U, for which the self-cleavage worked out at 0.849.
Regarding U14G C16G, the self-cleavage came out at 0.476.
For the variant U14G C16A, the self-cleavage was 0.642.
Consider U14G G45C, for which the self-cleavage is 0.879.
U14G G45A: the self-cleavage amounted to 0.708.
With U14G G45U, the self-cleavage worked out at 0.776.
As to U14C G33C, the self-cleavage came to 0.851.
With U14C G33U, the self-cleavage came to 1.09.
As to U14C G33A, the self-cleavage is 0.754.
Regarding U13G C43U, the self-cleavage came to 0.596.
Regarding U13G C43A, the self-cleavage is 0.369.
Consider U13G C43G, for which the self-cleavage came out at 0.335.
With U13G U32G, the self-cleavage was 0.74.
For U13G U32A, the self-cleavage is 1.01.
Consider U13G U32C, for which the self-cleavage came to 0.986.
Take U14C G31A: the self-cleavage came to 0.918.
To U14C G31U belongs 1.05.
For U14C G31C, the self-cleavage came to 0.816.
In the case of U14G A23G it was 0.248; in that of U14G A23U, 0.256.
Regarding U14G A23C, the self-cleavage was 0.36.
As to U14C U19A, the self-cleavage amounted to 0.362.
To U14C U19G belongs 0.334; to U14C U19C, 0.398; to U14C C30U, 0.613.
Take U14C C30A: the self-cleavage amounted to 0.7.
As to U14C C30G, the self-cleavage turned out to be 0.65.
To U14C C20G belongs 0.301; to U14C C20U, 0.457.
Turning to U14C C20A, the self-cleavage stood at 0.337.
Turning to U13G G27A, the self-cleavage is 0.66.
With U13G G27U, the self-cleavage was 0.375.
Regarding U13G G27C, the self-cleavage was 0.546.
On to U14C C29G, for which the self-cleavage is 0.497.
Consider U14C C29A, for which the self-cleavage was 0.461.
In the case of U14C C29U, the self-cleavage stood at 0.709.
Take U14G G39A: the self-cleavage was 0.305.
